Test results published in patent publication US20110091473A1, “NOVEL ANTIBODY THERAPIES” (GENMAB A/S, priority 2007, published 2011).

Tests used:
CD20 on Daudi cells = target: T1, CD20 on Daudi cells (Homo sapiens, UniProt P11836); test: FACS binding of anti-CD20 mAb to MβCD-treated Daudi cells
T1 construct: endogenous in cells; host or cells: Daudi cells
T1 sequence (P11836 1-297): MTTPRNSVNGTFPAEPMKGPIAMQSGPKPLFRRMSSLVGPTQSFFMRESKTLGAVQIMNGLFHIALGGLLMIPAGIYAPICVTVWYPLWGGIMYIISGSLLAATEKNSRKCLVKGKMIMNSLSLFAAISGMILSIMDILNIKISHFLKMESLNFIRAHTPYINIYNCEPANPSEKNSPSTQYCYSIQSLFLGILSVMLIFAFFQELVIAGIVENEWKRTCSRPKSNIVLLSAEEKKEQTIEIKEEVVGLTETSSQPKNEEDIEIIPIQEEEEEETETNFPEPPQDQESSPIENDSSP
Description: To deplete cholesterol from the cell membrane, methyl-beta-cyclodextrin (MβCD, Sigma, Zwijndrecht, The Netherlands) was added in varying concentrations to Daudi cells and RAJI-CD20high cells and incubated for 30 minutes at 37° C. under gentle shaking conditions. After incubation the cells were washed twice in PBS and resuspended in test medium to a concentration of 2×10^6 viable cells/ml. […] After washing twice with FACS buffer (PBS, 0.1% Bovine Serum Albumine, 0.02% Sodium Azide), cells were analyzed on a FACS Calibur (Becton Dickinson, Breda, The Netherlands). […] Binding is expressed as mean fluorescence intensity.
Cholesterol was depleted from the cell membrane of various B cells using varying concentrations of MβCD (as described in Example 2). Cells (1×10^5 cells/staining) were incubated with a serial dilution of human CD20 mAb 2F2 starting at saturating concentrations for 30 minutes at 4° C. After washing with FACS buffer, polyclonal rabbit-anti-human IgG-FITC (DAKO A/S, Denmark) was added for 30 minutes at 4° C. The cells were washed again, resuspended in FACS buffer and analyzed by flow cytometry. The mean fluorescence intensity (MFI) is a measure for CD20 binding of the mAb. Sigmoidal dose-response curves were calculated using non-linear regression and the EC50 of mAb binding were determined (using GraphPad Prism 4 statistical software).

CD20 on WIL2-S cells = target: T2, CD20 on WIL2-S cells (Homo sapiens, UniProt P11836); test: Binding of anti-CD20 mAb to WIL2-S cells with varied cholesterol content; details: for affinity in binding to cholesterol-depleted cells: WIL2-S cells depleted with lovastatin; for binding affinity after addition of cholesterol: cholesterol added to non-treated control WIL2-S cells; for binding affinity after replenishing of cholesterol: lovastatin-treated WIL2-S cells replenished with cholesterol
T2 construct: endogenous in cells; host or cells: WIL2-S cells
T2 sequence (P11836 1-297): T1 sequence (P11836 1-297)
Description: To reconstitute cholesterol into the cell membrane of the cells or increase the cholesterol content of the untreated cells, cholesterol (ICN Biomedicals, Zoetermeer, The Netherlands) was added to the test medium in a final concentration of 5 mg/ml 2 hours prior to FACS analysis. The cells were incubated for 30 minutes at 37° C. under gentle shaking conditions, after which the cells were washed twice in PBS and resuspended to 2×10^6 viable cells/ml. For comparison MβCD- and lovastatin-treated cell lines treated with only diluent were included.
To confirm that lovastatin treatment might result in a change in CD20 mAb binding affinity lovastatin-treated RAJI cells were stained with a concentration curve of CD20 mAb. […] After washing with FACS buffer, polyclonal rabbit-anti-human IgG-FITC (DAKO A/S, Denmark) was added for 30 minutes at 4° C. to detect the bound CD20 mAb. Cells were washed again, resuspended in FACS buffer and analyzed on a flow cytometer. The mean fluorescence intensity (MFI) was taken as measure for CD20 binding of the mAb.
Binding of anti-CD20 mAb to CD20 on various B cell lines could be restored upon replenishment of the cell membrane cholesterol content via addition of cholesterol (according to procedure as described in Example 4) to either MβCD- or lovastatin-treated cells, as measured by FACS analysis (FIG. 3). This was also observed for WIL2-S cells for which binding affinity of anti-CD20 mAbs to CD20 was determined after reconstitution of cholesterol of cholesterol-depleted cells using flow cytometry (FIG. 13).

Daudi cells = test: CDC of Daudi cells, Alamar Blue assay; type: cell-based, human
RAJI cells = test: CDC of RAJI cells, MTT analysis; type: cell-based, human
Description: CDC was induced by incubating B cells with anti-CD20 mAb (as described in Example 2). After 1-hour incubation (3-(4,5-dimethylthiazol-2-yl)-2,5-diphenyltetrazolium bromide (MTT) solution (5 mg/ml, Roche, Diagnostics, Almere, The Netherlands) was added to each well (flat-bottom microtiter plates; Nunc, Rochester, N.Y.). The reaction was stopped after 4 hours of incubation at 37° C. by the addition of 100 μl of 20% SDS (Roche Diagnostics, Almere, The Netherlands). After overnight incubation at 37° C. the absorbance of the samples was measured at 550-525 nm using an Elisa reader (EL808x, Biotek instruments, Highland park, Vt., USA). Cytotoxicity was expressed as a relative viability of the stimulated cells compared to cells incubated with medium only and was calculated as follows: relative viability=[(Ae−Ab)/(Ac−Ab)]*100, where Ab is the background absorbance, Ae is experimental absorbance of the lysed cells and Ac is the absorbance of untreated cells. The viability was expressed as percentage survival in comparison to non-cholesterol depleted cells (control).

Row | Substance | reduction of binding affinity for CD20 (increase in EC50) (CD20 on Daudi cells; 0 mg/ml vs 5 mg/ml MβCD, Daudi cells) | binding of FITC-conjugated mAb (mean fluorescence intensity) (CD20 on Daudi cells; Daudi cells treated with varying concentrations of MβCD, 30 min) | affinity in binding to cholesterol-depleted cells (CD20 on WIL2-S cells) | binding affinity after addition of cholesterol (CD20 on WIL2-S cells) | binding affinity after replenishing of cholesterol (CD20 on WIL2-S cells) | potency in inducing cell lysis, compared with rituximab or 11B8 (Daudi cells; Daudi cells) | CDC induction when treating cells with lovastatin (Daudi cells; lovastatin-treated Daudi cells) | survival upon mAb-induced CDC (Daudi cells; lovastatin-treated Daudi cells) | potency to lyse cells in presence of complement, compared with rituximab (RAJI cells; RAJI cells depleted of cholesterol with MβCD) | binding affinity upon cholesterol depletion (CD20 on Daudi cells; MβCD-treated Daudi cells) | survival after CDC induction (RAJI cells; RAJI cells depleted by lovastatin or MβCD vs non-treated) | capability to lyse cells after cholesterol replenishment (RAJI cells; depleted RAJI cells replenished with cholesterol vs non-treated)
1 | 2F2: human anti-CD20 mAb, VH SEQ ID NO:1, VL SEQ ID NO:2, disclosed in WO 2004/035607 | ~8 fold | dose-dependent decrease in binding | reduced affinity | further improved the binding affinity | restores affinity to the level of non-treated cells | more potent | still capable of inducing CDC | enhanced survival | more potent |  |  | 
2 | rituximab: anti-CD20 antibody Rituxan/MabThera, type I |  |  | reduced affinity | further improved the binding affinity | restores affinity to the level of non-treated cells |  |  | enhanced survival |  | negatively affected | enhanced survival | further increased the capability
